The record followed here is PMC10919400.

One assay deals with human plasminogen. In words: whole-bacteria Plg binding; bound Plg converted to Pln with tPA, Pln activity measured with chromogenic substrate (VALY). To be noted: +Plg/+tPA: S. suis is incubated with Plg and tPA; parent: est. 100; read off a plot.
The next assay deals with human plasmin (UniProt P00747). The assay is described as follows: whole-bacteria Pln binding; bound Pln activity measured with chromogenic substrate (VALY). To be noted: +Pln: S. suis is incubated with Pln; parent: est. 100; read off a plot.
UniProt P00747, sequence (P00747 581-810, chain 1 of 2): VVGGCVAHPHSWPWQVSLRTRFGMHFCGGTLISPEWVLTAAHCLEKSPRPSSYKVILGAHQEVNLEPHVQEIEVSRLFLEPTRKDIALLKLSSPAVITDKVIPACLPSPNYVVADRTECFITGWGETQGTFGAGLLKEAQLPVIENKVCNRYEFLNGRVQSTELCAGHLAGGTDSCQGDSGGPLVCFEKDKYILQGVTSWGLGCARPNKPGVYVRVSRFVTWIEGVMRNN
UniProt P00747, sequence (P00747 581-810, chain 2 of 2): as the sequence (P00747 581-810, chain 1 of 2) above

“Streptococcus suis P1/7 enolase, wild type, on intact bacteria (from UniProt A4W2T1) K261A”: the percent of parent (% of wild-type) came to 58 with human plasminogen and 56 with human plasmin.
In the same order, the values of “Streptococcus suis P1/7 enolase, wild type, on intact bacteria (from UniProt A4W2T1) K434A; K435A” are 55 and 46.
In the same order, the values of “Streptococcus suis P1/7 enolase, wild type, on intact bacteria (from UniProt A4W2T1) K252A; E253G; K255A” are 55 and 63.
In the same order, the values of “Streptococcus suis P1/7 enolase, wild type, on intact bacteria (from UniProt A4W2T1) K252A; K261A” are 57 and 50.
